Consider one molecule from patent US6087121A, “Chemiluminescent detection of heme proteins in biological samples” (Mayo Foundation for Medical Education and Research, priority 1999, dated 2000).

One assay concerns the target T1, MPO (Homo sapiens, UniProt P05164).
T1 sequence (P05164 49-745): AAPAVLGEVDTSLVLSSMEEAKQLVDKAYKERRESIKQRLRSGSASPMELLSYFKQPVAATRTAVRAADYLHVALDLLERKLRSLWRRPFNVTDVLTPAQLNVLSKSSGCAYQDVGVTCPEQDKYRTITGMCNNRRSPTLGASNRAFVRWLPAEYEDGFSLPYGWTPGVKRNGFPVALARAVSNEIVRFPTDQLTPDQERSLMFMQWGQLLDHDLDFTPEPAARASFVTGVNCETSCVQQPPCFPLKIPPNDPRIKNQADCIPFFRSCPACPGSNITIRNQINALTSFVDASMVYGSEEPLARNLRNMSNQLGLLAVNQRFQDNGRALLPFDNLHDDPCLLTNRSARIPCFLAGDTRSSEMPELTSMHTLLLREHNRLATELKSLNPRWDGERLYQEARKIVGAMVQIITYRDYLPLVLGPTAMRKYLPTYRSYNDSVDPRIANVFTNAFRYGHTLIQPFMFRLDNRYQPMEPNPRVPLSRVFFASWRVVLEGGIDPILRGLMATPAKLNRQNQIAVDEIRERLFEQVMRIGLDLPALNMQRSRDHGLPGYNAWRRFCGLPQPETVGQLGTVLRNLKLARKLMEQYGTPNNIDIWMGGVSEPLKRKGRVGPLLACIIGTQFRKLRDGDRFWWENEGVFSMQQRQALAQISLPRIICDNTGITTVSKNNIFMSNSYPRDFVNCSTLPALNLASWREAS
Nature of the assay: Effects of potential interfering substances in WBC (MPO, PS-1) assay. In kind it is biochemical. The protocol: Urine samples were diluted 1:4 into distilled water to minimize inhibitory effects observed with hyperosmolal urines. Two μL of diluted urine were added to 12×75 mm polystyrene test tube containing 50 μL of the PS-1 solution. The tubes were incubated at 37° C. for 5 minutes. MPO activity was determined by chemiluminescence emission using a Turner TD-20e luminometer maintained at 37° C. Leukocyte counting was performed manually by using a hemacytometer chamber (Kova Glasstic slide, Hycor, Irvine, Calif.) on each urine sample to determine the number of cells/mL.
Several possible interfering substances were added to urine and tested for inhibitory effects. Several common medications were also tested for potential inhibitory effects. […] Hb at concentrations of >10 μg/mL and Mb at concentrations >2 μg/mL were detected by the PS-1 substrate as the chemiluminescence emission was above the normal urine background. Samples grossly populated with bacteria caused slight inhibition of the MPO activity. Urine samples may contain many epithelial cells, casts, crystals, and numerous artifacts but none of these appear to interfere with the chemiluminescence emission from MPO.

A short description of assay [1]: Activity of hemoglobin and myoglobin (oxidation states of iron, standard curves) with 7-DNH. In kind it is biochemical. As for the experimental part:
The effect of the oxidation state of the heme iron on chemiluminescence emission was evaluated. Equal concentrations of hemoglobin and myoglobin were used. Standard solutions of Hb and Mb at varying concentrations were assayed to evaluate their behavior in the reaction.
With the addition of dithionite to the lysing agent, all of the iron in hemoglobin is immediately converted to the ferrous oxidation which subsequently reacts with H2 O2 and the substrate to form product. OxyHb and oxyMb […] were made by reducing methemoglobin/metmyoglobin with sodium dithionite and then oxygenating each protein by subsequent passage through a Sephadex column. The oxidation of oxyHb/oxyMb to the ferry (Fe^+4) oxidation state was achieved by adding an excess of H2 O2 to the protein solutions.

The next assay relates to Hb. Nature of the assay: Interference studies in Hb assay (7-DNH chemiluminescence). It counts as biochemical, human. To be noted: level producing a signal equivalent to 3 RBC per high power field, fixed Hb concentration. The protocol: Numerous potential interfering substances, which either enhance or quench the signal generated by cyclic hydrazides, were evaluated. The effects of these potentially interfering substances on light emission was investigated at varying concentrations of the interfering composition. Assays were performed using serial dilutions of the potential interfering compositions in ultrafiltered urine at a fixed concentration of Hb. Comparisons of chemiluminescence emission were made between a reference solution (Hb in ultrafiltered urine) without added interfering compositions and solutions with added interferant.
Generally, the value of 3 RBC per high power field is the normal cutoff point.
Bilirubin and uric acid were examined as a possible negative interfering compositions because of their chemical structure which may quench energy emitted.

B1: Myoglobin: Human heart myoglobin obtained from Calbiochem (protein, UniProt P02144 2-154, looked up)
Myoglobin: GLSDGEWQLVLNVWGKVEADIPGHGQEVLIRLFKGHPETLEKFDKFKHLKSEDEMKASEDLKKHGATVLTALGGILKKKGHHEAEIKPLAQSHATKHKIPVKYLEFISECIIQVLQSKHPGDFGADAQGAMNKALELFRKDMASNYKELGFQG
With B1, the “interference with PS-1 assay” value in the assay with MPO (Mb <2 μg/mL) was “did not interfere”. The molecule also yielded an Interference with MPO (level giving signal equal to 5 WBC/high power field, highest tested: hemoglobin 250, myoglobin 200 μg/mL) of over 2 µg/mL. For the same molecule, the “reactivity of Mb relative to Hb (fold less reactive)” value in assay [1] (alternative source of Mb, 7-DNH) is given as “about 30 -fold”. Also, in assay [1] (up to 4 μg/mL, FIG. 7), the “activity compared to Hb” value is listed as “very little activity”. Moreover, the results for the “Level of Interference” value in the assay with Hb, in the assay with Hb (listed as Mb) and in the assay on Hb (listed as myoglobin) were over 3.8 µg/mL, “above 4 μg/mL” and “approximately 4 μg/mL”, respectively.
